Laboratory results published in PMC8053102.

Target: T1, PcnR (plasmid copy number repressor, ProQ/FinO family) (Escherichia coli IncI2 plasmid pHNSHP45, UniProt Q9F577 1-198)
T1 sequence: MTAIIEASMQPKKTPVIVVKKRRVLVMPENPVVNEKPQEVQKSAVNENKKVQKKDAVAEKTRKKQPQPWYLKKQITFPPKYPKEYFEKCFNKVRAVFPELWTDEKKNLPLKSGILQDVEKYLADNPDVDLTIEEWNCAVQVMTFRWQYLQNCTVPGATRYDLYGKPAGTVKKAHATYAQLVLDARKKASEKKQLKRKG
Assay: EMSA

Binder: CUGAAGUGGAGUUUAAUUCCAUGAGAAGGAAAUAUCAACUCUUACAG (structured_RNA) [first stem-loop (SL) of repR mRNA, 47 nt]
- binding result: binds
